A short description of the data set: label from the status in PepcDB records.

As for “MANKNPLQKPFLFIILSINLIFLQAETTTQISTKKTYVIHMDKSAMPLPYTNHLQWYSSKINSVTQHKSQEEEGNNNRILYTYQTAFHGLAAQLTQEEAERLEEEDGVVAVIPETRYELHTTRSPTFLGLERQESERVWAERVTDHDVVVGVLDTGIWPESESFNDTGMSPVPATWRGACETGKRFLKRNCNRKIVGARVFYRGYEAATGKIDEELEYKSPRDRDGHGTHTAATVAGSPVKGANLFGFAYGTARGMAQKARVAAYKVCWVGGCFSSDILSAVDQAVADGVQVLSISLGGGVSTYSRDSLSIATFGAMEMGVFVSCSAGNGGPDPISLTNVSPWITTVGASTMDRDFPATVKIGTMRTFKGVSLYKGRTVLPKNKQYPLVYLGRNASSPDPTSFCLDGALDRRHVAGKIVICDRGVTPRVQKGQVVKRAGGIGMVLTNTATNGEELVADSHMLPAVAVGEKEGKLIKQYAMTSKKATASLEILGTRIGIKPSPVVAAFSSRGPNFLSLEILKPDLLAPGVNILAAWTGDMAPSSLSSDPRRVKFNILSGTSMSCPHVSGVAALIKSRHPDWSPAAIKSALMTTAYVHDNMFKPLTDASGAAPSSPYDHGAGHIDPLRATDPGLVYDIGPQEYFEFLCTQDLSPSQLKVFTKHSNRTCKHTLAKNPGNLNYPAISALFPENTHVKAMTLRRTVTNVGPHISSYKVSVSPFKGASVTVQPKTLNFTSKHQKLSYTVTFRTRFRMKRPEFGGLVWKSTTHKVRSPVIITWLPPL”, the protein production result was “failed”.

With “MANPLYHKHIISINDLSRDELELVLRTAASLKKTPQPELLKHKVIASCFFEASTRTRLSFETSIHRLGASVVGFSDSSNTSLGKKGETLADTMSVISTYVDAIVMRHPQEGASRLAAQFSGNVPIVNAGDGANQHPTQTLLDLFTIQETQGRLDNINIAMVGDLKYGRTVHSLTQALAKFNGNHFFFIAPDALAMPAYILQMLEEKEIEYSLHESLEEVVPELDILYMTRVQKERLDPSEYANVKAQFILRSSDLTGARDNLKVLHPLPRIDEITTDVDKTPYAYYFQQAGNGIFARQALLALVLNAELAL”, the protein production result is given as “not failed”.

As to “MANPNEAYRHYMKKLSYETDIADLSIDIKKGYEGIIVVDVRDAEAYKECHIPTAISIPGNKINEDTTKRLSKEKVIITYCWGPACNGATKAAAKFAQLGFRVKELIGGIEYWRKENGEVEGTLGAKADLFWNMKKESLEHHHHHH”, the protein production result was “not failed”.

With “MANSETSLQARLWKTLSQSPDVRLWRNNVGTCKAADGRFVRFGLCPGSSDLIGLTRVTITPDMVGQTIALFTAIEVKTPTGRVTPEQQSFIDFVQRSGGRAGVARSMQDANKIISGEGHVLEHHHHHH”, the protein production entry is given as “failed”.

As to “MANSITADEIREQFSQAMSAMYQQEVPQYGTLLELVADVNLAVLENNPQLHEKMVNADELARLNVERHGAIRVGTAQELATLRRMFAIMGMYPVSYYDLSQAGVPVHSTAFRPIDDASLARNPFRVFTSLLRLELIENEILRQKAAEILRQRDIFTPRCRQLLEEYEQQGGFNETQAQEFVQEALETFRWHQSATVDEETYRALHNEHRLIADVVCFPGCHINHLTPRTLDIDRVQSMMPECGIEPKILIEGPPRREVPILLRQTSFKALEETVLFAGQKQGTHTARFGEIEQRGVALTPKGRQLYDDLLRNAGTGQDNLTHQMHLQETFRTFPDSEFLMRQQGLAWFRYRLTPSGEAHRQAIHPGDDPQPLIERGWVVAQPITYEDFLPVSAAGIFQSNLGNETQTRSHGNASREAFEQALGCPVLDEFQLYQEAEERSKRRCGLLLEHHHHHH”, the protein production entry is “not failed”.

For “MANVKLLLPYILKWEGGFVHDPADAGGATNKGVTIATWKRVGYDKDGDGDIDVEDLKLLTDDDVLNRVLKPFYWDRWKADLIESQKVANILVDWVWGSGKYGIVIPQRILGVQADGIVGNKTLQAVNSADPDELFESIFDARREFLEDITARSIKKYEDSIGRKATERELLRHTNKRFLRGWLNRLEDIRKL”, the protein production result was “not failed”.

With “MANYEFSQVSGDRPGCRLSRKAQIGLGVGLLVLIALVVGIVVILLRPRSLLVWTGEPTTKHFSDIFLGRCLIYTQILRPEMRDQNCQEILSTFKGAFVSKNPCDITREDYAPLVKLVTQTIPCDKTLFWSKSKHLAHQYTWIQGKMFTLEDTLLGYIADDLRWCGDPSTSDMNYVSCPHWSENCPNNPITMFWKVISQKFAEDACGVVQVMLDGSLREPFYKDSTFGSVEVFSLDPNKVHKLQAWVMHDIEGASSNACSSSSLNELKMIVQKRNMIFACVDNYRPARFLQCVKNPEHPSCRLNT”, the protein production result is reported as “not failed”.

Turning to “MAPAEPACRCAAAPCSSMIGIDRGSAARLILFRKTFYNIEHTFGRLIVASDLRGLAKYVEPGIRLAVPVDYAGVSMAMTRPIIERKAGNLHLICVPTGGLQVDQLIGSGLVRTVETSAVTLGEAGGAPRFNAAVKDGSIKLMDATCPAIHAGLMAAQKGSPFMPMRGLIGSDILRHRKDWRVIDNPLSDGGDPVVLIPAIKPDVTIFHAPMADRFGNVWIGRRRELAAMAYASATTLVTVERIVEESLLANEITAAGVLPAIYVTEVALAPKGAWPYGLWGEYQTDTQELVRYARAARTAEGFADYMATTQMEPA”, the protein production result is “failed”.

As for “MAPDASTALAAREKVQQILNAACTGNLEFLKNVAKQLDEGKDLTKTVESIKDANKRGALHFAAREGQTEICRYLLEELKLNADAKDETGDTPLVHAARQGQIETVKYLLEQGADPNIASELGATALHHAAGTGEIELLKELLSRGVPVDSESESGTPLIWAAGHDQKNAVEVLLEHNANPNAETEDNITPLLSAVAAGSLSCLELLVKAGAKANVFAGGATPLHIAADIGNLELINCLLKAGADPNQKDEEGNRPLEVAAARDNRKVVEILFPLTTKPETVSDWTVDGILAHMESNKEQEENSNKAKSQETGIKKDLPVVSPEAKAKAAEAKARGQDAFHRKDFQMAIDAYTQAIDFDPTDHTLFSNRSLCWLRLGQAEHALSDAKACRELNPDWPKGCFREGAALRLLQRFDEAANAFYEGVLLSPESKELIDAFREAVDAGRKFHGKGEVKAKS”, the protein production result is recorded as “failed”.

“MAPRYDTLFYDGSCPLCAREIRTLRRLQTGNLIFADIHEQNPSNQQLPSREQLLRRLHLMSWNGEWVTGLHANVRAWSHTRFGWLFKPLLWPVIHPIASRIYETWADKRYGRKYACAMGHENSCPPGT”: the protein production entry is on record as “failed”.

As for “MAPSCLKMAHMRLLLTSFGHDHIRDFVRGTVAYIPDATRLFADSPEAAPFMETERNMLREHGLSIRELPISTSTPEEVDRVLGEVDGVYVAGGETFDLMWLLRSTGNDEVLIKHVRAGLPYIGTSAGAVIAGPSIEPISFLDSPDVAPNLSDYSGLGLCEHVVVPHAGGTIPQFPIDVFAETVRTYGAEFPLVLLKDGQALLIDDHGVHLILEHHHHHH”, the protein production entry is recorded as “not failed”.

“MAPTIRLPFRRTLALLASATILAQTGMSGIAFAQTSPETAVPGVAAPVPAAPTPPASTPQQTPPVQTVVPTNGPASVADLAEGLLDAVVNISTSQNVKDDEGVGPAPRAPDGSPFQEFFNDFFNKKQGNKGPNHNVSSLGSGFVIDPAGYIVTNNHVIEGADDIEVNFANGSKLKAKLIGTDTKTDLSVLKVEPKTPLKSVKFGDSSEMRIGDWVMAIGNPFGFGGSVTVGIISGRGRNINAGPYDNFIQTDAAINKGNSGGPLFNMKGEVIGINTAIISPSGGSIGIGFSVPSELASGVVEQLRQYGETRRGWLGVRIQPVTDDIADSLGLDTAKGALVAGVIKGGPVDDGSIKAGDVILKFDGKTVNEMRDLPRVVAESTVGKEVDVVVLRDGKEQTVKVKLGRLEDSDQAASGDASPDGSQDGVITPDPDENDDMDQPDTGDQVAPAPGAPAPDQHQQGQVSPDAATPKNVLGLSLSLLSPETRKAFGIAESVDGVVVTEVEPGSASAEKGLKPGDVIVEVAQEFMKSPDAVAAKVKSLKQEGRRNAQLMIASANGDLRFVAVPME”: the protein production entry is recorded as “failed”.

Consider “MAPTLAGPNVAGDCFPGASGCIVLPMSGSLSLHIAAFLALLPAAFTPLRQTPGRDGLFWGTLGVAIIGALVVSIVPSLRQGMWSTSFSSALWVSIAATLLLFSELCFRHQAAWRLTPVLMPYLIALGAMATIWEGAEGAPLADHAPAFWTVLHIVIAVLTYGMLTLGAVAALAGFLQERALKARRPTSLTRRLPAAAEADRLSWILLYTSEWVLGAGLLTGMAVEYLETGAILQPDHKSMLSSLAFLVIGGLILARSRWGVRGRVGARVVLLAYLLLTLAFPGVKFVSDVLL”, for which the protein production entry is “failed”.

The values are drawn from a protein production outcome set (Wang et al. 2014).
